From paper PMC4769027 (Journal of structural biology, 2016)

B1: FcγRIIb ectodomain (receptor, human, UniProt P31994 43-217, looked up)
chain: TPAAPPKAVLKLEPQWINVLQEDSVTLTCRGTHSPESDSIQWFHNGNLIPTHTQPSYRFKANNNDSGEYTCQTGQTSLSDPVHLTVLSEWLVLQTPHLEFQEGETIVLRCHSWKDKPLVKVTFFQNGKSKKFSRSDPNFSIPQANHSHSGDYHCTGNIGYTLYSSKPVTITVQAP
B2: FcγRIIa H131 variant ectodomain (receptor, human, UniProt P12318 34-211, looked up)
chain: QAAAPPKAVLKLEPPWINVLQEDSVTLTCQGARSPESDSIQWFHNGNLIPTHTQPSYRFKANNNDSGEYTCQTGQTSLSDPVHLTVLSEWLVLQTPHLEFQEGETIMLRCHSWKDKPLVKVTFFQNGKSQKFSHLDPTFSIPQANHSHSGDYHCTGNIGYTLFSSKPVTITVQVPSMG

Molecular target: wild-type IgG1 Fc (human, UniProt P01857 108-328 = IgG part, N-linked glycan at Asn297)
Test: SPR

Row | Binder | Kd
1 | B1 | 9.28 µM
2 | B2 | 4.49 µM
